Consider ten molecules from patent US20260217833A1 (APTEVO RESEARCH AND DEVELOPMENT, published 2026).

The target of experiment [1] is T1, human CD40 full-length (human, UniProt P25942 21-277).
T1 construct: Also used for CD40 of Daudi cells, of CD40-expressing HEK293 cells and of the BPS CD40/NFkB HEK293 reporter cells where the row says so; also called CD4001012; CHOK1SV/CD40
As to the kind of experiment: flow cytometry, CHOK1SV/human CD40 cells.

In another experiment the target is T2, Cynomolgus CHOK1SV/CD40.
T2 construct: also called Cyno CD40 full-length; CD4001013
T2 receptor chain: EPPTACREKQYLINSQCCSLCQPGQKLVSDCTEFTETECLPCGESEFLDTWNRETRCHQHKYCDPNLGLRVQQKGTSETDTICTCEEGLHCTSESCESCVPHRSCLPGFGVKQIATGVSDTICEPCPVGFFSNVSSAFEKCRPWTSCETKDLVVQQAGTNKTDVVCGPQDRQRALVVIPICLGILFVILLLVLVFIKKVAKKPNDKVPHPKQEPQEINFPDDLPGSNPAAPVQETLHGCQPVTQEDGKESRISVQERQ
As to the kind of experiment: flow cytometry, CHOK1SV/cynomolgus CD40 cells.

Experiment [2] deals with T1, human CD40 full-length. Nature of the experiment: flow cytometry, CHOK1SV/human CD40 cells. This is another data set of the same source. (In general: In flow cytometry, cells or beads pass a laser one at a time.)
Experiment [3] deals with T1, human CD40 full-length. As to the kind of experiment: flow cytometry, CHOK1SV/human CD40 cells. This is another data set of the same source.
The target of a further experiment is T3, Human PD-L1 full-length (human, UniProt Q9NZQ7 19-290).
T3 construct: also called PDL01021; CHOK1SV/huPDL1
T3 sequence (Q9NZQ7 19-290): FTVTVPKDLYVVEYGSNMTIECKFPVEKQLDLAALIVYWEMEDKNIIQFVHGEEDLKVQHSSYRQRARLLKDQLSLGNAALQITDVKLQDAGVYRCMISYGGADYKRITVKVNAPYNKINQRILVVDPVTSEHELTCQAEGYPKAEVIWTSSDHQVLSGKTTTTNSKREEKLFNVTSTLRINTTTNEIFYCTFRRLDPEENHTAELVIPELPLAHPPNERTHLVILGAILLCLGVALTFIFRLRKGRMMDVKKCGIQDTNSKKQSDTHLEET
As to the kind of experiment: flow cytometry, CHOK1SV/human PD-L1 cells.

Experiment [4] concerns the target T1, human CD40 full-length. As to the kind of experiment: flow cytometry, CHOK1SV/human CD40 cells. The source holds these as a separate data set.
Target sequence in this assay (P25942 21-277): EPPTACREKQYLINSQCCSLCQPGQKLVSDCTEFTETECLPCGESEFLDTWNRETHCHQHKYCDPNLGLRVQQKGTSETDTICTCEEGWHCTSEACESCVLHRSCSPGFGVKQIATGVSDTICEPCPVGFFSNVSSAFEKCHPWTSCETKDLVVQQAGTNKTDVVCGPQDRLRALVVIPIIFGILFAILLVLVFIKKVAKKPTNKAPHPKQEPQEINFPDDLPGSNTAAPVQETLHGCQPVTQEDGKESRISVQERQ
In the next experiment the target is T4, human CD40 ECD- HAC tag (human).
T4 construct: also called CD4001006; recombinant monomeric human CD40 ectodomain (ECD)
Nature of the experiment: SPR, binder captured on anti-human IgG, monomeric CD40 ECD injected, 1:1 fit. In general terms: SPR reads the build-up and loss of mass on a sensor chip optically.

Where two headings read alike, the source gives them in different places.

B1: PC401132 (bispecific antibody)
scFv-Fc-scFv chain: DIQMTQSPSSLSASVGDRVTITCRASQDINKFLSWYQQKPGKAPKLLIHYTSSLQSGVPSRFSGSGSGTDFTLTISSLQPEDFATYYCLQYDNLYTFGQGTKLEIKGGGGSGGGGSGGGGSGGGGSEVQLVESGGGLVQPGGSLRLSCAASGFTFSDYGMAWVRQAPGKGLEWVSFITSLAYIIYYADSVKGRFTISRDNAKNSLYLQMNSLRAEDTAVYYCARNYGSSPYYFDYWGQGTLVTVSSEPKSSDKTHTCPPCPAPPAAAPSVFLFPPKPKDTLMISRTPEVTCVVVDVSHEDPEVKFNWYVDGVEVHNAKTKPREEQYNSTYRVVSVLTVLHQDWLNGKEYKCAVSNKALPAPIEKTISKAKGQPREPQVYTLPPSRDELTKNQVSLTCLVKGFYPSDIAVEWESNGQPENNYKTTPPVLDSDGSFFLYSKLTVDKSRWQQGNVFSCSVMHEALHNHYTQKSLSLSPGGGGSPSDIQMTQSPSSVSASVGDRVTITCRASQSLLFSVNQKNYLAWYQQKPGKAPKLLIYWASSLQSGVPSRFSGSGSGTDFTLTISSLQPEDFATYYCQHYYSYPWTFGQGTKVEIKGGGGSGGGGSGGGGSGGGGSQVQLVQSGAEVKKPGSSVKVSCKASGYTFSTSWIEWIRQAPGQGLEWMGSINPGSGSTNYAQKFQGRVTITADTSTSTAYMELSSLRSEDTAVYYCARGDDGSYVRWYFDHWGQGTLVTVSS
notes: also called H-Leu52Asn
B1: the binding result with human CD40 full-length [1] and in the experiment with Cynomolgus CHOK1SV/CD40 was “binds” each time.

B2: PC401133 (bispecific antibody)
scFv-Fc-scFv chain: DIQMTQSPSSLSASVGDRVTITCRASQDINKFLSWYQQKPGKAPKLLIHYTSSLQSGVPSRFSGSGSGTDFTLTISSLQPEDFATYYCLQYDNLYTFGQGTKLEIKGGGGSGGGGSGGGGSGGGGSEVQLVESGGGLVQPGGSLRLSCAASGFTFSDYGMAWVRQAPGKGLEWVSFITSLAYIIYYADSVKGRFTISRDNAKNSLYLQMNSLRAEDTAVYYCARNYGSSPYYFDYWGQGTLVTVSSEPKSSDKTHTCPPCPAPPAAAPSVFLFPPKPKDTLMISRTPEVTCVVVDVSHEDPEVKFNWYVDGVEVHNAKTKPREEQYNSTYRVVSVLTVLHQDWLNGKEYKCAVSNKALPAPIEKTISKAKGQPREPQVYTLPPSRDELTKNQVSLTCLVKGFYPSDIAVEWESNGQPENNYKTTPPVLDSDGSFFLYSKLTVDKSRWQQGNVFSCSVMHEALHNHYTQKSLSLSPGGGGSPSDIQMTQSPSSVSASVGDRVTITCRASQSLLFSVNQKNYLAWYQQKPGKAPKLLIYWASSLQSGVPSRFSGSGSGTDFTLTISSLQPEDFATYYCQHYYSYPWTFGQGTKVEIKGGGGSGGGGSGGGGSGGGGSQVQLVQSGAEVKKPGSSVKVSCKASGYTFSTSWIEWIRQAPGQGLEWMGSIQPGSGSTNYAQKFQGRVTITADTSTSTAYMELSSLRSEDTAVYYCARGDDGSYVRWYFDHWGQGTLVTVSS
notes: also called H-Leu52Gln
As to B2, the binding result in the experiment with human CD40 full-length [1] and with Cynomolgus CHOK1SV/CD40 was “binds” in each case.

B3: CD401136 (Fc fusion)
scFv: DIVMTQSPDSLALSLGERATMNCKSSQSLLFSVNQKNYLAWYQQKPGQPPKLLIYWASTRESGVPDRFSGSGSGTDFTLTISSLQAEDVAVYYCQHYYSYPWTFGQGTKLEIKGGGGSGGGGSGGGGSGGGGSQVQLVQSGAEVKKPGASVKVSCKASGYTFSTSWMEWVRQAPGQGLEWMGEILPGSGSTNYAQKFQGRVTMTRDTSTSTVYMELSSLRSEDTAVYYCARGDDGSYVRWYFDVWGQGTTVTVSS
notes: humanized 1D5 variant; also called CD4001136; not shown: human Fc (scFv-hFc format, scFv at the N-terminus) and its junction
On to B3, for which the binding result with human CD40 full-length [2] is on record as “binds”.

B4: CD401137 (Fc fusion)
scFv: QIVMTQSPGTLSLSPGERATMTCKSSQSLLFSVNQKNYLAWYQQKPGQAPRLLIYWASTRESGVPDRFSGSGSGTDFTLTISRLEPEDAATYYCQHYYSYPWTFGAGTKLEIKGGGGSGGGGSGGGGSGGGGSQVQLVQSGAEVKKPGASVKVSCKASGYTFSTSWMEWVRQAPGQGLEWMGEILPGSGSTNYAQKFQGRVTMTRDTSTSTVYMELSSLRSEDTAVYYCARGDDGSYVRWYFDVWGQGTTVTVSS
notes: humanized 1D5 variant; also called CD4001137; not shown: human Fc (scFv-hFc format, scFv at the N-terminus) and its junction
Turning to B4, the binding result in the experiment with human CD40 full-length [2] is “binds”.

B5: CD401135 (Fc fusion)
scFv: DIVMTQSPDSLALSLGERATMNCKSSQSLLFSVNQKNYLAWYQQKPGQPPKLLIYWASTRESGVPDRFSGSGSGTDFTLTISSLQAEDVAVYYCQHYYSYPWTFGQGTKLEIKGGGGSGGGGSGGGGSGGGGSQVQLVQSGAEVKKPGASVKVSCKASGYTFSTSWIEWVRQAPGQGLEWIGEILPGSGSTNYAQKFQGRATFTADTSTSTAYMELSSLRSEDTAVYYCARGDDGSYVRWYFDVWGQGTTVTVSS
notes: humanized 1D5 variant; also called CD4001135; not shown: human Fc (scFv-hFc format, scFv at the N-terminus) and its junction
Consider B5, for which the binding result with human CD40 full-length [2] was “binds”.

B6: CD401134 (Fc fusion)
scFv: DIVMTQSPDSLALSLGERATMNCKSSQSLLFSVNQKNYLAWYQQKPGQPPKLLIYWASTRESGVPDRFSGSGSGTDFTLTISSLQAEDVAVYYCQHYYSYPWTFGQGTKLEIKGGGGSGGGGSGGGGSGGGGSQVKLVQSGAEVKKPGASVKVSCKASGYTFSTSWIEWIRQAPGQGLEWIGEILPGSGSTNYAQKFQGRATFTADTSTSTAYMELSSLRSEDTAVYYCARGDDGSYVRWYFDVWGQGTTVTVSS
notes: humanized 1D5 variant; also called CD4001134; not shown: human Fc (scFv-hFc format, scFv at the N-terminus) and its junction
As for B6, the binding result with human CD40 full-length [2] was “binds”.

B7: CD4001048 (bispecific antibody)
scFv-Fc-scFv chain: DVVMTQTPLSLPVSLGDQASISCRSSQSLVHYNGYTYLHWYLQKPGQSPKLLIYKVSNRFSGVPDRFSGSGSGTDFTLKISRVEAEDLGVYFCSQTTHVPLTFGAGTKLELRGGGGSGGGGSGGGGSGGGGSEVMLVESGGGLVKPGGSLKLSCAASGFTFSSYAMSWVRQTPERRLEWVASISSAGTYIYYPDSVKGRFTISRDNAKNILYLQMNSLRSEDTAMYYCARHGNGYDPLWYFDVWGAGTTVTVSSEPKSSDKTHTCPPCPAPPAAAPSVFLFPPKPKDTLMISRTPEVTCVVVDVSHEDPEVKFNWYVDGVEVHNAKTKPREEQYNSTYRVVSVLTVLHQDWLNGKEYKCAVSNKALPAPIEKTISKAKGQPREPQVYTLPPSRDELTKNQVSLTCLVKGFYPSDIAVEWESNGQPENNYKTTPPVLDSDGSFFLYSKLTVDKSRWQQGNVFSCSVMHEALHNHYTQKSLSLSPGGGGSPSEVQLVESGGGLVKPGGSLRLSCAASGFTFSDYGMAWVRQAPGKGLEWVAFITSLAYIIYYADSVKGRFTISRDNAKNSLYLQMNSLRAEDTAVYYCARNYGSSPYYFDYWGQGTLVTVSSGGGGSGGGGSGGGGSGGGGSDIQMTQSPSSLSASVGDRVTITCRASQDINKFLSWYQQKPGKAPKLLIHYTSSLQPGVPSRFSGSGSGTDFTLTISSLQPEDFATYYCLQYDNLYTFGQGTKLEIK
notes: also called CD40_5B9 x hFc x PDL_5F9
Turning to B7, the binding result with human CD40 full-length [3] and in the experiment with Human PD-L1 full-length was “binds” throughout.

B8: CD4001100 (Fc fusion)
chain: DVQMTQSPILLSASVGDRVTITCRSSQSLVHYNGYTYVHWYQQRTNGSPRLLIYKVSNRFSGVPDRFSGSGSGTDFTLTISSLQPEDIADYFCQQTTHVPLTFGAGTKVEIKGGGGSGGGGSGGGGSGGGGSEVQLVESGGGLEQPGGSLRLSCAASGFTFSSYAMSWVRQAPGKGLEWVASISSAGTYIYYADSVKGRFTISRDNSKNTLYLQMNSLRAEDTAVYYCARHGNGYDPLWYFDVWGQGTTVTVSS
notes: As m65; not shown: wildtype IgG1 Fc region
For the molecule B8, the binding result with human CD40 full-length [4] is on record as “binds”. In the experiment with human CD40 ECD- HAC tag, binding was characterised by a dissociation constant (Kd) of 0.021 µM; the koff (in general, the first-order rate constant of dissociation) amounted to 0.006 s⁻¹; the kon – broadly, a measure of how fast the partners come together – is 290000 M⁻¹ s⁻¹.

B9: CD4001132 (Fc fusion)
chain: DVQMTQSPILLSASVGDRVTITCRSSQSLVHYNGYTYVHWYQQKPGKAPKLLIYKVSNLFSGVPSRFSGSGSGTDFTLTISSLQPEDIADYFCQQTTHVPLTFGAGTKVEIKGGGGSGGGGSGGGGSGGGGSEVQLVESGGGLVQPGGSLRLSCAASGFTFSSYAMSWVRQAPGKGLEWVSAISSAGTYIYYADSVKGRFTISRDNSKNTLYLQMNSLRAEDTAVYYCARHGNGYDPLWYFDVWGQGTTVTVSS
notes: as for B8
Consider B9, for which the EC50 (read off the curve) (commonly the concentration giving half of the maximal effect) in the experiment with human CD40 full-length [2] was ~0.005 µM. In addition, the on-rate (kon) with human CD40 ECD- HAC tag amounted to 240000 M⁻¹ s⁻¹.

B10: CD4001133 (Fc fusion)
VH: EVQLVESGGGLVQPGGSLRLSCAASGFTFSSYAMSWVRQAPGKGLEWVSAISSAGTYIYYADSVKGRFTISRDNSKNTLYLQMNSLRAEDTAVYYCARHGNGYDPLWYFDVWGQGTTVTVSS
VL: DIQMTQSPSSLSASVGDRVTITCRASQSLVHYNGYTYLNWYQQKPGKAPKLLIYKVSNRFSGVPDRFSGSGSGTDFTLTISSLQPEDFATYYCQQTTHVPLTFGQGTKVEIK
notes: Tested as scFv on the N-terminus of a wildtype IgG1 Fc region; also called Humanized 5B9
Consider B10, for which the “EC50 (read off the curve)” value with human CD40 full-length [2] is ~0.007 µM. In the experiment with human CD40 ECD- HAC tag, the Kd – broadly, the concentration at which binding is half-saturated – was 0.085 µM; the koff is 0.019 s⁻¹; the kon worked out at 230000 M⁻¹ s⁻¹.
